# Results taken from article PMC9769551.
# Target: T1, AcrR (Escherichia coli BW25113) (UniProt P0ACS9)
# T1 sequence: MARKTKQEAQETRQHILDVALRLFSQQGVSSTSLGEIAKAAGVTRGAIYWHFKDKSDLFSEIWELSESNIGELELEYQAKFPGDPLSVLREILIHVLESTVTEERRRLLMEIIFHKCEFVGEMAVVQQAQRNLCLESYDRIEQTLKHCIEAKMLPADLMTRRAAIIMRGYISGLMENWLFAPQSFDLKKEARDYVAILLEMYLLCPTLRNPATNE
# Experiment: EMSA
# Conditions: 10 mM Tris-HCl pH 7.5, 50 mM KCl, 1 mM DTT, 5 mM MgCl2, 1 ug poly(dI-dC), 0.05% NP-40, 5% glycerol, 20 uL with 25 fmol DNA (protein stock in 200 mM NaCl, 20 mM …)
row,Sequence,binding
1,CTTTGATAGTCATATATTCCACCAGCTATTTGTTAGTGAATAAAAGGTTGCCTGTAAAATTACAAAAACCTTACGCAGCGTCAAGCGGAATCGTGTCAATCATTGCGACAAATCAATCCTGTGCCTAAGCATTACGCGACTGACTCGCCTCACTCTTCCTTTGGGCTTGAGACCACATGGGGTCGGCGCCCCGAATTTTAAAGGGCAATTACGATAAAAATGTGATTTTCATCACGATTTAGGTGCAGC (double strand) [gapAp 249 bp],no binding
2,TGTTCATATGTAAACCTCGAGTGTCCGATTTCAAATTGGTCAATGGTCAAAAGTTAATAAACCCATTGCTGCGTTTATATTATCGTCGTGCTATGGTACATACATTCACAAATGTATGTAAATCTAACGCCTGTAAATTCACGAACATATGGCACGAAAAACCAAACAAGAAGCGCAAG (double strand) [acrABp 179 bp],binds
3,CAAAGTAAAGTGGTCAAGCCCCGCGCATAGCGCAAGCTTTGGCAGAAGAAAGGACTAAAGCGCGTTGCGCCAGTGCTGCTCACCTACGAGCAAGATAGTGGATGAGGTACGAAGATGGGTAAATGTAGAAAATAACGTCCTGAACAAATTGTCCATAATATTACAATTATCCGCAGTGTTGCTTCTCGTCATCGCGGATGATAATTGTCCTCGGTAGTTGAACACGCCTGATTTGTATCATAGCTTAAGAATTAACTCAAAATATTTTCACTTCTTTACCTGAGCG (double strand) [mdtUJIp 286 bp],binds
4,GTGGACTAAATTATCGCCATTACTGCGCTTTAAATGACCTTTATGTTCAATATTTTTTCAATCTAGCAGTGGGTTTTCATTTTTGCAAACTCAATTTAACATTTGACAAACATTTAGTTTGCATACAGATTCGAATGGTGGTCATTATATTTTACGCTTTGATAACGAGCGGAAAACAAACCAAAGGCGAAGAATCATGGAAACCAATATCGTTGAAGTAGAGAAC (double strand) [puuAp 226 bp],binds
